Assay results from the DeepSol protein solubility set.

Assay: soluble on expression in E. coli; label from the status in PepcDB or PDB records

Question: For “MATHGQTCARPMCIPPSYADLGKAARDIFNKGFGFGLVKLDVKTKSCSGVEFSTSGSSNTDTGKVTGTLETKYKWCEYGLTFTEKWNTDNTLGTEIAIEDQICQGLKLTFDTTFSPNTGKKSGKIKSSYKRECINLGCDVDFDFAGPAIHGSAVFGYEGWLAGYQMTFDSAKSKLTRNNFAVGYRTGDFQLHTNVNDGTEFGGSIYQKVCEDLDTSVNLAWTSGTNCTRFGIAAKYQLDPTASISAKVNNSSLIGVGYTQTLRPGVKLTLSALVDGKSINAGGHKVGLALELEA”, which “soluble on expression in E. coli” value is on record?
Answer: soluble

Question: For “MATKITINVTNNSTSTQNFFFFQQPAVYSGGPKVYTNSLYSQTLLPYATSGSVLSFTMILQYYAGVQQQVDPPQIGQPSGQLGAIQPIELTPASGGTPTKNTTNMTVDPSLGLSVPVSTDGPQAGSFRIVTPVYDPVLMNYSAGSAVQSLTGAITLSNFVTAQPNTNLDCQPIIKFYVQTGTYTAGTVMNFTSSSVGAALCDATPGFTTFNVSYNPNGTWTVKNMALSQLANGSRGLLEKSSFTTELNAAAQIAEVLNEAGTAVVSTGLAANFLRPVTVTNLTAPGAIIRNRDYQVGPVDGRHLGLTCTDVAGNTAVFD”, which “soluble on expression in E. coli” value is on record?
Answer: not soluble

Question: Which “soluble on expression in E. coli” value does the source give for “MATLDVNPELYQAQLADKIARLKAMFVDYSMPELEVFESPVANYRMRAEFRIWHEGDDMYYIMFNQETREKYRVDQFPAASRLINDLMPLLMDAMKGSPILRHKLFQVDFLSTLSGEILVSLLYHRQLSEEWITAAQALKQRLNDEGFNLNLIGRARKMKVVLDRDYVVENLQVNGQPYVYKQVENSFTQPNAKVAEKMLEWAVDCTQESKGDLLELYCGNGNFSLALAQNFERVLATELAKPSVEAAQFNIAANQIGNVQIIRMSAEEFTQAMEGKREFNRLKDAGVDLQSYRCNTIFVDPPRSGMDIDTCKMVQGYERILYISCNPETLQENLQVLGETHQVVRFALFDQFPYTHHMEAGVMLERKK” here?
Answer: not soluble

Question: For “MATLEDGTSEDRVANDEYKIWKKNTPFLYDLVMTHALEWPSLSVQWLPDVAKDNSDHTIHRLILGTHTSDEQNHLLISKICMPTDDAQFDASRYDTERSEYGGFGAVNGKVEPDIRINHEGEVNRARYMPQKSNIIATKSPHADVYIFDYLKHSAVPRDNTFNPLIRLKGHTKEGYGLSWNPNKEGLILSASDDQTVCHWDINANQNVAGELQAKDVFKGHESVVEDVAWHVLHDGVFGSVGDDKKLLIWDVRTSTPGHCIDAHSAEVNCLAFNPYSEFILATGSADKTVALWDLRNLRMKLHSFESHRDEIFQVQWSPHNETILASSGTDKRLHVWDLSKIGEDQSAEDAEDGPPELLFIHGGHTAKISDFSWNPNEPWVVCSVSEDNILQVWQMADNIYNEVDEETPADVVERQQ”, which “soluble on expression in E. coli” value is on record?
Answer: not soluble

Question: For “MATNRSRRLRKKLCVDEFQELGFELNLDFKQELDDKAIDAFLDAFLKEAMEANGLGYVGGDDFGLVCLSKRGSVSEEQRAAVEAWLKGRSELTEVTVSPLIDVWY”, which “soluble on expression in E. coli” value is on record?
Answer: not soluble

Question: For “MATPAYMSITGTKQGLITAGAFTEDSVGNTYQEGHEDQVMVQGFNHEVIIPRDPQSGQPTGQRVHKPVVITKVFDKASPLLLAALTSGERLTKVEIQWYRTSAAGTQEHYYTTVLEDAIIVDIKDYMHNCQDPGNAHFTHLEDVHFTYRKITWTHEVSGTSGSDDWRSPVAG”, which “soluble on expression in E. coli” value is on record?
Answer: soluble

Question: With “MATQLLMPKATAVWLVDNTALTFDQIAEFCKLHVLEVKAIADGEAAYGIKGLDPISSGQLTRSEIARVEADKNARLKISQSKVHIPEKKRKGARYIPLSRRQDRPNGILWLVTNHPELKDAQIARLIGTTKGTIEQIRNRTHWNSANLVALDPVGLGLCLQIDLDIELKRAAKNRPLSNEEDKSLLPASVTENVAIHEKEHEQDFNKNFDADKVFAKLNALQKNRENDASTELEHHHHHH” as the sequence, how does the “soluble on expression in E. coli” value read?
Answer: soluble

Question: Which “soluble on expression in E. coli” value does the source give for “MATRFKGLSAFPITPADEAGRVDIEAFSALIARLDAAEVDSVGILGSTGIYMYLTREERRRAIEAAATILRGRRTLMAGIGALRTDEAVALAKDAEAAGADALLLAPVSYTPLTQEEAYHHFAAVAGATALPLAIYNNPTTTRFTFSDELLVRLAYIPNIRAIKMPLPADADYAGELARLRPKLSDDFAIGYSGDWGCTDATLAGGDTWYSVVAGLLPVPALQLMRAAQAGNAEEAKRLDATFQPLWALFKEFGSIRVIYAAANILSLTVSEPPRPILPLTSAERQRVEEALEALSALETAP” here?
Answer: not soluble

Question: Which “soluble on expression in E. coli” value does the source give for “MATRFMTDPHAMRDMAGRFEVHAQTVEDEARRMWASAQNISGAGWSGMAEATSLDTMAQMNQAFRNIVNMLHGVRDGLVRDANNYEQQEQASQQILSS” here?
Answer: not soluble

Question: Which “soluble on expression in E. coli” value does the source give for “MATSLQAAATFLQPAKIAASPSRNVHLRSNQTVGKSFGLDSSQARLTCSLHSDLKDFAGKCSDAAKIAGFALATSALVVSGAGAEGAPKRLTYDEIQSKTYMEVKGTGTANQCPTIDGGSETFSFKAGKYTGKKFCFEPTSFTVKADSVSKNAPPDFQNTKLMTRLTYTLDEIEGPFEVGSDGSVKFKEEDGIDYAAVTVQLPGGERVPFLFTVKQLEASGKPESFSGKFLVPSYRGSSFLDPKGRGGSTGYDNAVALPAGGRGDEEELSKENVKNTAASVGEITLKITKSKPETGEVIGVFESLQPSDTDLGAKVPKDVKIQGVWYGQIE” here?
Answer: soluble

Question: Which “soluble on expression in E. coli” value does the source give for “MATWTVHLEGGPRRVNHASIAVGSRIYSFGGYCSGEVTDAKDPLDVHVLNTENYRWIKMNPGYVYNNRIITKATIESPYSDSDKMFGAVPYQRYGHTVVEYQGKAYVWGGRNDDYGACNLLHEYDPEYNVWKKVEIEGFVPPSRDGHTAVVWNNQMFVFGGYEEDAQRFSQETYVFDFATSTWREMHTKNDPPRWRDFHTASVIDGMMYIFGGRSDESGQVGDEHLFHTIHDQYDDTLMALNLATGAWTRTKVPENTMKPGGRRSHSTWVYDGKMYMFGGYLGTINVHYNELYCFDPKTSMWSVISVRGTYPSARRRHCSVVSNGKVYLFGGTMPLPCHPLSTTNYNGMISPSGLADLSDLHVLDFAPSLKTLAMQSVLNELKVPSKGMFETLQNELAADIRFEMYCQVMPNVVSNGGSPRNDQAG” here?
Answer: not soluble

Question: For “MAVAANKRSVMTLFSSASDMYSHQVRIVLAEKGVSFEVELVDENNLPAELIELNPYKTVPTLVDRELALYDSKIIMEYLDERFPHPPLMPVYPVARGNSRLMIYRIERNWYSLAEKVVNGSPEVAENARNKLRNDLLTLGPVFAEFEYFMSEEFSLIDCYLAPLLWRLPVLGIDLIGPGSKELKVYMNRVFERDSFLASLTEAEREMRLAR”, which “soluble on expression in E. coli” value is on record?
Answer: not soluble

Question: With “MAVAYSIGIDSGSTATKGILLADGVITRRFLVPTPFRPATAITEAWETLREGLETTPFLTLTGYGRQLVDFADKQVTEISCHGLGARFLAPATRAVIDIGGQDSKVIQLDDDGNLCDFLMNDKCAAGTGRFLEVISRTLGTSVEQLDSITENVTPHAITSMCTVFAESEAISLRSAGVAPEAILAGVINAMARRSANFIARLSCEAPILFTGGVSHCQKFARMLESHLRMPVNTHPDAQFAGAIGAAVIGQRVRTRR” as the sequence, how does the “soluble on expression in E. coli” value read?
Answer: soluble

Question: Which “soluble on expression in E. coli” value does the source give for “MAVESRVTQEEIKKEPEKPIDREKTCPLLLRVFTTNNGRHHRMDEFSRGNVPSSELQIYTWMDATLKELTSLVKEVYPEARKKGTHFNFAIVFTDVKRPGYRVKEIGSTMSGRKGTDDSMTLQSQKFQIGDYLDIAITPPNRAPPTSGRMRPY” here?
Answer: soluble

Question: For “MAVIVLAGTIGAGKSSLTALIANRLGSEAFYESVDDNEVLPLFYAEPEKYAFLLQIYFLNKRFDSIKQALTHENNVLDRSIYEDSLLFHLNADLGRANETEVKVYDDLLQNMLQELPYAAHKKRPDLLVHIRISFPKMLERIKKRGRPYEQIETDPTLYDYYQMLNERYDQWYEDYDESPKIQIDGDKYDFVEDPEACQYVLALIEKKIEELER”, which “soluble on expression in E. coli” value is on record?
Answer: not soluble

Question: Which “soluble on expression in E. coli” value does the source give for “MAVKISGVLKDGAGKPVVNCAIELRARRTSPTVVAHVVATCVTDNNGAYVIEAEPGYYEVALHCNGWQPTRVGDIDVAPTDAPGTLNAFLNAPKDGDLRPEVMKRFEEMVAQAQQSAGAAAGNAQQTAQDVAAAATARDDAQRFAEKARQDATVTAEDRKATAEDVTSTGANAAAAGQSAQDAAGYARAAEQAKNDIDAALTGTLKMANHLSEIAAAGEKAQQKSRDNLGLKSAATMEAQSDIYDRTKGRLAIPGAFGFGCAFLPEDVIRFDTKSDFLAWVRNALPGEYSVAGPYGIIIPDTRFEGVLSIRWTDARPETTEPRYRAKSLTFYGINGPIYHTRYRYWPISRLTG” here?
Answer: not soluble

Question: With “MAVLKGLRPRVPKGLKSPPEPWGWPLLGHVLTLGKNPHLALSRMSQRYGDVLQIRIGSTPVLVLSRLDTIRQALVRQGDDFKGRPDLYTSTLITDGQSLTFSTDSGPVWAARRRLAQNALNTFSIASDPASSSSCYLEEHVSKEAKALISRLQELMAGPGHFDPYNQVVVSVANVIGAMCFGQHFPESSDEMLSLVKNTHEFVETASSGNPLDFFPILRYLPNPALQRFKAFNQRFLWFLQKTVQEHYQDFDKNSVRDITGALFKHSKKGPRASGNLIPQEKIVNLVNDIFGAGFDTVTTAISWSLMYLVTKPEIQRKIQKELDTVIGRERRPRLSDRPQLPYLEAFILETFRHSSFLPFTIPHSTTRDTTLNGFYIPKKCCVFVNQWQVNHDPELWEDPSEFRPERFLTADGTAINKPLSEKMMLFGMGKRRCIGEVLAKWEIFLFLAILLQQLEFSVPPGVKVDLTPIYGLTMKHARCEHVQARRFSINHHHH” as the sequence, how does the “soluble on expression in E. coli” value read?
Answer: soluble

Question: For “MAVPVRHLVAVTACVSGVAHTYMAAERLEKLCQQEKWSIKIETQGALGTENRLTEEDIRRADVVLLITDIELAGVERFTRSRYVQSGISAFLREPQRVMSAVRKLLSAPQHTHLILE”, which “soluble on expression in E. coli” value is on record?
Answer: not soluble

Question: With “MAVRKLTTGKWLCECYPAGRSGRRVRKQFATKGEALAFERHTMEETEAKPWLGESVDRRTLKDVVELWFKLHGKSLTAGQHVYDKLLLMVDALGNPLATDLTSKMFAHYRDKRLTGEIYFSEKWKKGASPVTINLEQSYLSSVFSELSRLGEWSYPNPLENMRKFTIA” as the sequence, how does the “soluble on expression in E. coli” value read?
Answer: not soluble

Question: For “MAVRKLWKTVVQLFSKSKSEECNTEAGTMEVSFLKYGVRGLNADCSYVKSQCIKLSECECLYTFASDVCKEDFHNSEEMKVFVVQHSQEMVDGTDLFVHAEESV”, which “soluble on expression in E. coli” value is on record?
Answer: not soluble

Question: With “MAVSLVKGGNVSLTKEAPTMNIAVVGLGWDARVTDGSEFDLDASVFMVGENGKVLSDQHFIFFNNKVSPCGSVVHQGDNRTGAGDGDDEQIKIDLKKVPADVKKIIFSVTIYDAEARKQNFGMVSNSFMRVVNEDNSAEIARFDLSEDASTETAMIFGELYRNNDEWKFKAVGQGFAGGLSALASQHGVSV” as the sequence, how does the “soluble on expression in E. coli” value read?
Answer: not soluble

Question: For “MAWPKVQPEVNIGVVGHVDHGKTTLVQAITGIWTSKHSEELKRGMTIKLGYAETNIGVCESCKKPEAYVTEPSCKSCGSDDEPKFLRRISFIDAPGHEVLMATMLSGAALMDGAILVVAANEPFPQPQTREHFVALGIIGVKNLIIVQNKVDVVSKEEALSQYRQIKQFTKGTWAENVPIIPVSALHKINIDSLIEGIEEYIKTPYRDLSQKPVMLVIRSFDVNKPGTQFNELKGGVIGGSIIQGLFKVDQEIKVLPGLRVEKQGKVSYEPIFTKISSIRFGDEEFKEAKPGGLVAIGTYLDPSLTKADNLLGSIITLADAEVPVLWNIRIKYNLLERVVGAKEMLKVDPIRAKETLMLSVGSSTTLGIVTSVKKDEIEVELRRPVAVWSNNIRTVISRQIAGRWRMIGWGLVEI”, which “soluble on expression in E. coli” value is on record?
Answer: soluble

Question: With “MAYLERAYFGLQCFWGESAWAKLKGVVVTRVGYAGGKQPNPTYKNIKDHTEITEITFDPKVIEYSKLTNFFWKHHNPAERRKKQYQSAILYVNDDQKKVAEETLKVAKDKHGDIETYIEPLDKFYQAEDYHQKYWFRQKKILFDELSLLDTQVAEGELATKLNAYCAGFQDFHDLERLAKEYGLKDSFVNKVKDYALSGGDPRNCHA” as the sequence, how does the “soluble on expression in E. coli” value read?
Answer: not soluble
